In the DeepSol protein solubility set:

test: soluble on expression in E. coli; label from the status in PepcDB or PDB records

Sequence | soluble on expression in E. coli
MKKDIILSGVGGQGILSIATVIGKAALKEGLYMKQAEVHGMSQRGGDVQSNLRISDKPIASDLIPSGKCDLIISLEPMEGLRYLPYLSPEGWLVTNETPFVNIPNYPEEDKVMAEINKLPHKIVLNVDKVAKEVGSARVANIVLLGATIPFLGIDYEKVQDSIREIFLRKGEAIVEMNLKALAAGKEIAEKLMQ | not soluble
MEVQSMLLNDVKWEKPVTISLQNGAPRIFNGVYEAFDFLQHEWPARGDRAHEQALRLCRASLMGDVAGEIARTAFVAASRQAHCLMEDKAEAPNTIASGS | soluble
MTRDLAPALQALSPLLGSWAGRGAGKYPTIRPFEYLEEVVFAHVGKPFLTYTQQTRAVADGKPLHSETGYLRVCRPGCVELVLAHPSGITEIEVGTYSVTGDVIELELSTRADGSIGLAPTAKEVTALDRSYRIDGDELSYSLQMRAVGQPLQDHLAAVLHRQRRSHHHHHH | soluble
MGSLDLPYASSFKGGSETFLQNVFESILKTYLRKNPMAKTIWELVKSVDNEKISYDHFFFRTFKVDGYGIDSLASFFMDYGYKVGGRLDFPKKKVQVLWLSPPDVHFPDNGYGIGNGPLPRLVIAELLVEELSPESQEIIRKYLKPEGGKQAVLSSTLGSLIWEKPTSTDFNQLAKESEFAAWTLVYGYTMNHLAFAVHRLKHRFSDIKCVKEYFEENGFELNKDGGVLKVSEDSLLLQVSAMSEKLVVEFADGVTQIVPASYIEFVERLVLPQFKDMPCDEIKEFHRREGLEQASAYHIMESTRFTA | soluble
MGGSHHHHHHGMASMTGGQQMGRTLYDDDDKDRWGSKIVVVGANHAGTACIKTMLTNYGDANEIVVFDQNSNISFLGSGMALWIGEQIAGPEGLFYSDKEELESLGAKVYMESPVQSIDYDAKTVTALVDGKNHVETYDKLIFATGSQPILPPIKGAEIKEGSLEFEATLENLQFVKLYQNSADVIAKLENKDIKRVAVVGAGYIGVELAEAFQRKGKEVVLIDVVDTCLAGYYDRDLTDLMAKNMEEHGIQLAFGETVKEVAGNGKVEKIITDKNEYDVDMVILAVGFRPNTTLGNGKIDLFRNGAFLVNKRQETSIPGVYAIGDCATIYDNATRDTNYIALASNAVRTGIVAAHNACGTDLEGIGVQGSNGISIYGLHMVSTGLTLEKAKRLGFDAAVTEYTDNQKPEFIEHGNFPVTIKIVYDKDSRRILGAQMAAREDVSMGIHMFSLAIQEGVTIEKLALTDIFFLPHFNKPYNYITMAALGAKD | soluble
MNNHSNKHWHLQMYLPEGKKGVQIRSEDMLKEPQPVIGTGEWNNRQCQDFKELHIGTIILVREGKKAIALCEVTSGCYTDKELHEKYRHSNFRNVKVLDFIAEKDQPPPRLFSQGTLKSCGEWTHQWEYIDKLISLMDKNNPIEEYSQLKEYAQLLESKKNIILQGAPGTGKTYTTASIAVHMCNKNFTDYTDHSKVIEEYERLRDTGQIAFCTFHQSMDYEDFVEGLKPEVKSNNVEYNVENGIFKSICEQAKTKEEADIITCIDKYLQSIKGYENKKKIPTISGRSDLWVWWIEGNDTISTRSAISKSEKGEQYSLSPLNIEKVKLQAIGEAIENNWRQYAQAFINAVKKEYQLDKQISDKPYVLIIDEINRGNVSKIFGELITLLEADKRSGAGSDSNHCISLILPYSKENFSVPSNLYIIGTMNTTDRSTGTIDYAVRRRFAFVTLKSSDKVIKEYAEKQSVEDNVRDASLALFTQINGNLKNDKESFIAKHKAADFELEDLKVGHSYFMAKDIDMLKMKMRYEVVPLIKEYIKDGILRGMQGDESYFEKWMNAECFHQSEPTTNDN | not soluble
MGSDKIHHHHHHMKPIDLDKLDLLTLSILVSLYENKSATHVSRILDVPASKISRCLHTARLIFGDELFIRRKYGLVPNDYAGKIYPIAKEIVECAKHFNRLNSAEQSHNRYFELVIPGMIAYAYPRALMKAIKEHNKNIHINVSSWSSHSLESVTSDPHCIVMCCCKGPEEILCFDQKLQVEVLATMNRQYLLSCRKHPILKQDISLETIAKYPYINTFIGTQAPILNPFQEYCQAKDLSLNTEMTITSVSSLFDYLSDCQSLAITPYKAVYDMLDDDSGLHACQLSEYECNRLFEVVEPLKLVLVTHPSADNEDTAWLKQQIRELTHELI | not soluble
MDAKVAFSPHSDANGRLDEIGADIDTAQSSVLFSLAFLGQMTRGAIGPALGRALERPEVHVMGIADAEVRAGNLGLNVLTPDNRRRVVRAAALTGNVPPPFLTEPSGLAGVDGNQRGTRMHHKFVVLDFDKPTARVYLGSYNFSNPADDENGENLVVVRDRTVATSYMIEALRMYDHYVFRVLEHHHHHH | soluble
MLVLGGISLFLFMVKQNEKAMLNQEKERAAVVLADNETRVLFFYKDTCADCQKVYPTVYEEDQGENNIVFINLNQPKNRHYIKTYTLEKVPTFVTPKRRYVGTDTRKIQQLIAENNDERSEDLEHHHHHH | not soluble
MYDNTTDTKMQAERQKKSCTTVGGVLAYSVPTGLHRCDSAVTRVEEVHMAEMVEIPAALYGRGAVRVVPVDSTVRLDVKIPAALMRKLMIESNRSGVPLTKIVDRLLSAAIAQDSEQEEIRPR | not soluble
MGSDKIHHHHHHMVLKVFKDHFGRGYEVYEKSYREKDSLSFFLTKEEEGKILVVAGEKAPEGLSFFKKQRAEGVSFFFCERNHENLEVLRKYFPDLKPVRAGLRASFGTGDRLGITTPAHVRALKDSGLFPIFAQQSVRENERTGRTWRDVLDDATWGVFQEGYSEGFGADADHVKRPEDLVSAAREGFTMFTIDPSDHVRNLSKLTEKERNEKFEEILRKERIDRIYLGKKYSVLGEKIEFDEKNLRDAALVYYDAIAHVDMMYQILKDETPDFDFEVSVDETETPTSPLFHIFVVEELRRRGVEFTNLALRFIGEWEKGIDYKGDLAQFEREIKMHAEIARMFEGYKISLHSGSDKFSVYPAFASATGGLFHVKTAGTSYLEAVKVISMVNPELFREIYRCTLDHFEEDRKSYHISADLSKVPEVEKVKDEDLPGLFEDINVRQLIHVTYGSVLKDASLKERLFKTLEQNEELFYETVAKHIKRHVDLLEG | not soluble
MSIKIGLLGFGTVASGIPFLLKENGEKVFAASRDQLEIAKVLVKDDEEKDRLIAAGNDYNFVTNVDEILNDEEIQIVVELMGRIEPARTFITKALEAGKNVVSANKDLIATHGKELIALAQDKGVAFYYEAAVAGGIPILRTLANSLTSDKVTRILGVLNGTSNFMMTKMVDEGWSYEDALKTAQELGYAESDPTNDVEGYDAAYKAVILSQFGFGATIDFDDVSHKGITNISTDDVAVAQELGYVIKLVGDVREVESGISAEVSPTFLPKNHPLASVNDVMNAVFVESIGIGESMYYGPGAGQKPTATSVLADIIRIARRLSDGNVGKPFNEFRRDLPLANPADVKSNYYFALDTPDEKGKILHLSEIFNSEDISFEQVLQQKANGTTARIVVITHAMSKTQLKAVTEKLEAAEDFTVVNTLKVLSNLEHHHHHH | soluble
MGSDKIHHHHHHMMAKLVVCIIDGMADPPPPAGGVTPLAAAHTPHCDTLARHSVAGLCHVIQPEAVPGSEAGLSALLCCEAAASIARGPVEALAQGDPVAPHETVWRLNLVSLGPRGNYYNPAPLLDAATETAARKMLDRALGTQGYSLLGGKGFRHLCAGTEPPVLRDGPQDVCGMTPDTGQADLNSYCPRLARAMTEANVLFRRSRMDLAVWPWGAGTMPDLPGFAETTGQTGALAGGVPLARGLALALGMTAPSIAGATGGIDTDLGAKTRAAIALAAGHDVVYLHVEAPDLHAHALDRVAKRRAIERIDAEVVGPLHMALPDATLLITCDHATDCATGRHMAIPVPFILHKPDGPQDGIATFSEAASARTGIRIDSAATLVRLALAD | not soluble
GISVDKRIEQATSDFLAAAQAIDLQEHLISGYRSVDYQTELYQSYIKKEMANDPTLTQEAAEALVQTYSQPPGASEHHTGLAIDMSTVDTLNASDPSVAKAVQKIAPDYGFVLRFPEGKKTSTGVDYEDWHYRYVGKASARYMAQHNLTLEEYIAALKEKR | not soluble
AIASDKYIGDSHLEETGEEKQDSQEKEAVTPEKAEEQKLKAKYPNLGQKPGGSDFLMKRLQKGQKYFDSGDYNMAKAKIKNKQLPCAGPDKNLVTGDHIPTPQDLPQRKSSLVTSKLAGHVEDLHHV | soluble
MAKGTIKTNTPPPAPVVGPPGKSAKYRVKHTITVMSGKGGVGKSTVAVNLAVSLAKKGLKVGLIDADINGPDDPKLLGVEDLKLYADDDGIIPAETKYGVKVVSMGFLLPSQDTPVIWRGSLMHKAIQQFLEDVSWKDTDYVVLDMPPGTGDVALSVAQLVPESNGVVIVVTPQDVALLDAKKAINFARQLKLPIFGIIENMSGFVCPHCGNVTYIFKEGGGEKSAKEYNVPFLGKIPLVPEIADNGDKGIPAVEINDTIKSIFNDIADKILKQILGENVKTEALEHHHHHH | not soluble
MLQLTLESSFSNTLTVSELNSYVKSTLEEDFLLKRACIKGEISNCTLHKSGHVYFTLKDENSAIDCVMFKPYTKKLDFSPAEGMSVIIKGKVSLYTKTGKYQFYCNEMEKEGLGDLFIKFKKLKEKLESEGLFNEEYKQKIPKYPKNIGIITSPTGAAIRDIIKVTRNRNSSVNLIIYPAVVQGESAAKTVISGISELNKLEKIDLIIIARGGGSMEDLWCFNNESLARAIFESKKPVITGIGHETDFTISDFVSDLRAATPSNAAEIAIYNEYELKSMINNLERMLKNRMKTEISNRSYELDILYSKIEKNSPKSKIEKQKVHVDKIRAQMNHEIKNKISYEVKRFEKSYSLLNAYNPLNVLNKGYSIIQDENEKIISSKSSLNLENDVKITLKDGTVDAHITLKE | not soluble
MAHHHHHHMNYNNNSFIPPTHVVKNIYTSAKTKFFLIKSSSDKNIAISLNYNIWATTPKNEYKFVSAFMEHDYVILVFSVNGSSKFCGYAIMQSKPGESKNNNVYFYYDNKVFRGKNFDIQWIRVVDVPFQEVAHLKNSLNEYKPIKVGRDGQEIEQMAGIQLCEAFESNFIKINNNITDTNTKPNIPPMYNMNTNNYVDSPNMNENIDMIKLYPYNNNFNINYNNFRNLYEESQYNLFNFYNPALHIFPIDLTNMNYDEYIYLYEKSQLVWQQKMLQMKANMNCIKQ | not soluble
MAGDPMRTYENKEELKAEIEKTFEKYILEFDNIPENLKDKRADEVDRTPAENLAYQVGWTNLVLKWEEDERKGLQVKTPSDKFKWNQLGELYQWFTDTYAHLSLQELKAKLNENINSISAMIDSLSEEELFEPHMRKWADEATKTATWEVYKFIHVNTVAPFGTFRTKIRKWKKIVLLEHHHHHH | soluble
MSNDDNVELTDGFHVLIDALKMNDIDTMYGVVGIPITNLARMWQDDGQRFYSFRHEQHAGYAASIAGYIEGKPGVCLTVSAPGFLNGVTSLAHATTNCFPMILLSGSSEREIVDLQQGDYEEMDQMNVARPHCKASFRINSIKDIPIGIARAVRTAVSGRPGGVYVDLPAKLFGQTISVEEANKLLFKPIDPAPAQIPAEDAIARAADLIKNAKRPVIMLGKGAAYAQCDDEIRALVEETGIPFLPMGMAKGLLPDNHPQSAAATRAFALAQCDVCVLIGARLNWLMQHGKGKTWGDELKKYVQIDIQANEMDSNQPIAAPVVGDIKSAVSLLRKALKGAPKADAEWTGALKAKVDGNKAKLAGKMTAETPSGMMNYSNSLGVVRDFMLANPDISLVNEGANALDNTRMIVDMLKPRKRLDSGTWGVMGIGMGYCVAAAAVTGKPVIAVEGDSAFGFSGMELETICRYNLPVTVIIMNNGGIYKGNEADPQPGVISCTRLTRGRYDMMMEAFGGKGYVANTPAELKAALEEAVASGKPCLINAMIDPDAGVESGRIKSLNVVSKVGKK | soluble
MGHHHHHHSHMRPELLEYYIKVILDYNTAHNKVALSECYTVASVAEMPQNYRPHPQRFTYCSQVLGLHCYKKGIHYWEVELQKNNFCGVGICYGSMNRQGPESRLGRNSASWCVEWFNTKISAWHNNVEKTLPSTKATRVGVLLNCDHGFVIFFAVADKVHLMYKFRVDFTEALYPAFWVFSAGATLSICSPK | not soluble
